Laboratory results published in patent EP3048116A1 (International-Drug-Development-Biotech, dated 2016).

Molecular target: T1, Purified human sDR5 (human, UniProt O14763 56-182, limits assumed)
T1 construct: Analyte in the Biacore assay; only called 'purified human sDR5'
Assay: SPR (Biacore), MAb captured on immobilised GAH, sDR5 injected at 40 nM to 2.5 nM

Kd | Binder
0.426 nM | Hz033-Mut7 (antibody, human IgG1, kappa, also called Hz033 Mut7 (K326A E333A P396L)) heavy: EVQLQQSGAEVVKPGASVKLSCKASGFNIKDTFIHWVKQAPGQGLEWIGRIDPANGNTKYDPKFQGKATITTDTSSNTAYMELSSLRSEDTAVYYCVRGLYTYYFDYWGQGTLVTVSSASTKGPSVFPLAPSSKSTSGGTAALGCLVKDYFPEPVTVSWNSGALTSGVHTFPAVLQSSGLYSLSSVVTVPSSSLGTQTYICNVNHKPSNTKVDKKVEPKSCDKTHTCPPCPAPELLGGPSVFLFPPKPKDTLMISRTPEVTCVVVDVSHEDPEVKFNWYVDGVEVHNAKTKPREEQYNSTYRVVSVLTVLHQDWLNGKEYKCKVSNAALPAPIAKTISKAKGQPREPQVYTLPPSRDELTKNQVSLTCLVKGFYPSDIAVEWESNGQPENNYKTTPLVLDSDGSFFLYSKLTVDKSRWQQGNVFSCSVMHEALHNHYTQKSLSLSPGK light: not shown
0.4 nM | Hz033-Mut8 (antibody, human IgG1, kappa, also called Hz033 Mut8 (Y300L K326A E333A P396L)) heavy: EVQLQQSGAEVVKPGASVKLSCKASGFNIKDTFIHWVKQAPGQGLEWIGRIDPANGNTKYDPKFQGKATITTDTSSNTAYMELSSLRSEDTAVYYCVRGLYTYYFDYWGQGTLVTVSSASTKGPSVFPLAPSSKSTSGGTAALGCLVKDYFPEPVTVSWNSGALTSGVHTFPAVLQSSGLYSLSSVVTVPSSSLGTQTYICNVNHKPSNTKVDKKVEPKSCDKTHTCPPCPAPELLGGPSVFLFPPKPKDTLMISRTPEVTCVVVDVSHEDPEVKFNWYVDGVEVHNAKTKPREEQYNSTLRVVSVLTVLHQDWLNGKEYKCKVSNAALPAPIAKTISKAKGQPREPQVYTLPPSRDELTKNQVSLTCLVKGFYPSDIAVEWESNGQPENNYKTTPLVLDSDGSFFLYSKLTVDKSRWQQGNVFSCSVMHEALHNHYTQKSLSLSPGK light: not shown
0.464 nM | Hz033-Mut11 (antibody, human IgG1, kappa, also called Hz033 Mut11 (F243L R292P Y300L V305L K326A E333A P396L)) heavy: EVQLQQSGAEVVKPGASVKLSCKASGFNIKDTFIHWVKQAPGQGLEWIGRIDPANGNTKYDPKFQGKATITTDTSSNTAYMELSSLRSEDTAVYYCVRGLYTYYFDYWGQGTLVTVSSASTKGPSVFPLAPSSKSTSGGTAALGCLVKDYFPEPVTVSWNSGALTSGVHTFPAVLQSSGLYSLSSVVTVPSSSLGTQTYICNVNHKPSNTKVDKKVEPKSCDKTHTCPPCPAPELLGGPSVFLLPPKPKDTLMISRTPEVTCVVVDVSHEDPEVKFNWYVDGVEVHNAKTKPPEEQYNSTLRVVSLLTVLHQDWLNGKEYKCKVSNAALPAPIAKTISKAKGQPREPQVYTLPPSRDELTKNQVSLTCLVKGFYPSDIAVEWESNGQPENNYKTTPLVLDSDGSFFLYSKLTVDKSRWQQGNVFSCSVMHEALHNHYTQKSLSLSPGK light: not shown
